Results taken from the supplement of paper PMC11502859.
Several values for one entry are separate records, joined by “and”; a condition that tells them apart may be missing. Identical values can stand only once.
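Note: lentiviral eGFP-IRES-mCherry reporter pool sorted by FACS 96 h post-transduction, gated on mCherry-high cells, Illumina read counts normalized per million, median across four biological replicates.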

The substances below were run on HEK293T (assay: median enrichment of reporter reads in eGFP-reduced (low/intermediate) vs eGFP-high sorted cells (eGFP-extension fusion abundance) (ratio); higher = stronger loss of eGFP-fusion protein abundance (more destabilising extension)).
RARCPSPS [PTH2] showed a median enrichment of 2.74.
For QHGGFGS [AKAIN1], the median enrichment was 0.844.
CRKVSKNVNIL [C2orf49] gave a median enrichment of 0.739.
For WSTPAWYRHTQGLPCLHSPA [PDZD3], the median enrichment was 5.04.
SCVKSFSVFSTFIKTQDNSYWREILQM [ZNF708] showed a median enrichment of 11.8.
YQLINLE [BRWD3] showed a median enrichment of 0.91.
For SLYQKPEVE [UGT2B17], the median enrichment was 0.724.
LRVAFFLL [GTF2A1] gave a median enrichment of 6.78.
In the case of “RAWVLTPGRATLSDLKMRILGTGCLSPQQNQNESLKAQDSAFATLPLSWYRRWM [ZNF410]”, the median enrichment is reported as 8.88.
WPQFQLSWAPAWTLPMAMPSLGNLSLPSVG [PLA2G3] showed a median enrichment of 12.4.
CFSVNLSLLVERSGACPSSQTSDL [LRRC46] gave a median enrichment of 5.72.
For SKHLKC [FAN1], the median enrichment was 0.578.
WGTKPRRIPPQ [CA10] showed a median enrichment of 0.682.
“YAATAKKNRVRKLLGWVDLGIFYLVKALYSHRRKIWDISIIYILI [RFPL3]” was tested, and the median enrichment was 45.1.
For “WPRLSTCHLLACLTLRTHLPGPSLFHPREAELPKTQVFSYLFPILRGFP [ZDHHC18]”, the median enrichment was 17.8.
Substance QVNANSIVEPGV [PRKCB] has a median enrichment of 0.284.
In the case of EHQETLE [KLHL14], the median enrichment is reported as 0.343.
Work on YHH [FAM229B] yielded a median enrichment of 0.611.
“LAEDPADPYLEEEEKQERESHSQPAIGSNWTTCGMDLETSTSPNTSPLPRAGPVHALP [CYFIP2]” showed a median enrichment of 1.33.
FFFF [Phe04] showed a median enrichment of 9.4.
KQRRWTFCSNVYMYRIVHTSNSEDLYL [SLC10A7] showed a median enrichment of 6.06.
Substance KRKLKNGCLELVLQLL [REG1B] has a median enrichment of 6.65.
LGRIMASFQNSFS [OR2AG1] gave a median enrichment of 7.84.
Work on SNWGAFSPEQRGPRHAVERLHLPPFPGQQD [COX14] yielded a median enrichment of 0.854.
With WARVVARPCTTAIANQSPKAKFTCCSHPQ [MAGEB2] the median enrichment was 8.12.
Work on SREHENGSMTLPDTDAT [TP53] yielded a median enrichment of 0.734.
Work on “QGPPNLIAGHSQPSESESRFLLSLPSSPLETQLLSQVRQWAGSCFISLSLSIPLCLVSLPLVSAWQPPPPTYHPSPITQVNVT [PGLYRP4]” yielded a median enrichment of 3.73.
CIFFYQEG [PTEN] was tested, and the median enrichment was 6.73 and 8.49.
In the case of “RDSRTKSLCMKLPTMNVMMLYTKVTRQLSLSGFRSVFGTSLSSTYSAHGNYKLYISFPIVFQNVFSTEHA [RUFY2]”, the median enrichment is reported as 8.53.
Substance LSSC [KRTAP13-1] has a median enrichment of 0.413.
“RQGRLRGQAGGQQLQEGSDNSPPAWAHLLLLLLLGSAPQTRLWPPSQCPVTSPE [CRACR2B]” was tested, and the median enrichment was 9.74.
LTLLKTGQSLPLCTF [MYCN] showed a median enrichment of 15.2.
Work on “RAPVWMLLPRLQTTGSFPCPNPRRSFLEGSWALGTCVSCAYHRPRPPWISWIGVGE [TXNRD1]” yielded a median enrichment of 10.1.
LCLI [UBP1] showed a median enrichment of 3.44.
Work on SRPHTPALTQLLLGT [GRM2] yielded a median enrichment of 5.49.
“EFFLELKHPRMPLHVFHSPHLQTSLLFLTRPESKLPSLGNSGEGVSCTTYHTPSHPVSDFGMDSGKLGPSLNRVMYLNVCYFQ [HSPA1L]” showed a median enrichment of 5.31.
Work on CNTM [STAP1] yielded a median enrichment of 0.724.
With “SEVRACAMCETGKLGAQFEFFLFFFFLSTKNTLMVNTGQNQERMCSFQGLGQNL [GAB3]” the median enrichment was 7.14.
For WEKQAKEKSVTVPL [KIDINS220], the median enrichment was 0.839.
Substance WRGARAPWSL [CEP104] has a median enrichment of 1.95.
In the case of SREDVKCLSVNCSAVSKQSSNLQY [RIT1], the median enrichment is reported as 0.34.
With “PGCLPCLPRPALVAPTALTVNPEAGSPANLWAESGESWWMRLRRRQEHLETGASWTGTLPLPGHRSSGGSNLRLNTRHPCSQK [TMEM91]” the median enrichment was 3.37.
Work on YILLKVF [LY75] yielded a median enrichment of 4.38.
In the case of SGKWCFPQEDYWNWMTSE [ACBD5], the median enrichment is reported as 2.
RRRRRRR [Arg07] was tested, and the median enrichment was 0.889.
Substance RESLHLEITTGYASGI [ZNF41] has a median enrichment of 5.83.
In the case of “MGNYILLCQGQQTPAVKGIPSARRLFGACMFIAPARPDRGLLHKPCLVHFFTCKGTECGLRFGTRGGFGNYGAQVIILRSFIQ [AHNAK]”, the median enrichment is reported as 9.08.
QLFTLFFYIYLYIYIKIGS [CBX3] gave a median enrichment of 10.2.
For “SKRPGRKPPPLKVVFVTVLWSIVLKMGNYILLCQGQQTPAVKGIPSARRLFGACMFIAPARPDRGLLHKPCLVHFFTCKGTEC [AHNAK]”, the median enrichment was 7.93.
For “GGPMGMSMAQPSYTPPQMTPHPTQLRHGPPMHSYLPSHPHHPAMMMHGGPPTHPGMTMSAQSPTMLNSVDPNVGGQVMDIHAQ [MEIS2]”, the median enrichment was 2.36.
With RRTHRQ [ZNF397] the median enrichment was 1.02.
SVRLDWGGWHCVGGQLSI [ACTL10] showed a median enrichment of 13.7.
LINARSHPMIILNYSHYF [LRRIQ3] showed a median enrichment of 6.8.
With “YLICTNMTQMFSKITGKPLTSICVSQLTEKKITCSSFIISHWNII [SENP7]” the median enrichment was 3.44.
WARSTGPDEWIFTTFTRL [CD8B] was tested, and the median enrichment was 7.72.
QFLC [BEST3] showed a median enrichment of 0.953.
With EFIFKRFSECAQNTWLK [TRMT10C] the median enrichment was 5.59.
For “QEITRWHQPRALARYGEGTWGPHLPPGLFREDPTVTPPSAVGAWRWAAGLNPPWGAPFLLPICVYIHK [MEF2B]”, the median enrichment was 5.36.
Substance “WFIFKGLCVTLTFPVVTCDCFVFVEEYCFYFEKRVFFLSMGLQGWCTTGPSMYSCIDFFT [CD109]” has a median enrichment of 0.738.
With YKRSLADPSL [KCNQ3] the median enrichment was 0.769.
“LIQHREVAACDLTHRFLCFLSHPGNLAFWFLPATLRLSSSAFQ [FHL2]” was tested, and the median enrichment was 7.42.
With “RGTLRSPKTSSCWGPHEGTSTLWGVARKRQALQLGDPIWKRDSDLPTSSSSFSTKAPVDSREVVKIFFSPIFLPASGDTAAVT [PGPEP1]” the median enrichment was 2.83.
Substance YKRFNFQ [IGSF6] has a median enrichment of 1.72.
For LNQS [CFH], the median enrichment was 0.385.
With “KVPMSQPGLWLPSIPSPEMAPWDEEGRVGCWCRIKIWQDRLPQGHRPLPPTRTPPTQLPLRVL [ITGA7]” the median enrichment was 17.1.
For SSSAC [BPTF], the median enrichment was 0.596.
With “YEQGGLGWPSPGGCGWGQETQPTTAPVSSPHKAAWVCTVCKLQDTLPGDPRGHSYTLFTRKIQRSQ [C2orf50]” the median enrichment was 9.09.
Substance “SGVLSSHFCVTCHFLPLVPCRFGMKMVSFAVFNLFFIMVEYSSRSFVLVYEENLHIFFVFQ [CHIC1]” has a median enrichment of 9.4.
In the case of REAMPWSWD [SLN], the median enrichment is reported as 0.623.
CERGLSSSLPAPSSPRPSSLCAW [HOXC10] gave a median enrichment of 2.77.
Work on “QRLMQERCEGLRAGDCAILKPPLDLRTPRVGTSRVVGQPGSLYCGFSEA [MEIS3]” yielded a median enrichment of 6.79.
LLRPHVKPPCPSTLPIALQRSSSWMTQI [RESP18] showed a median enrichment of 7.12.
In the case of QQQQQQQQQ [Gln09], the median enrichment is reported as 0.104.
Work on LLYSILWSSSSVARPLILSFAHVHPN [KCNK17] yielded a median enrichment of 25.2.
“GGQVAEGSGCRLLYPLCLKHPPHRALVFTRFVLDSLNGNRIPWLRAKTTTYQCPCPFQLTLSSLRSSLSLWKGHPSQGRNAWS [SLC13A5]” was tested, and the median enrichment was 8.48.
For SEITDTFFGIHILGLGGVAHACNPSPLGG [CTSL], the median enrichment was 13.3.
In the case of “EGLPFPKPRVMSNCNQAQNQRPGCEIHTSLELVVSSWPQQLFPVLTG [PHF11]”, the median enrichment is reported as 7.37.
WFYILTS [CLHC1] gave a median enrichment of 5.45.
Substance “LTFSGNRADDYNIFFLMLTFLKIHIWDSYYQGSTYVNLQFMFQDICQMYYRCL [SUV39H2]” has a median enrichment of 10.1.
QSSYPLEEDCFQII [KDSR] showed a median enrichment of 0.764.
LLLLLLLLL [Leu09] was tested, and the median enrichment was 11.2.
“WPVPGALLRPTTASWVGRTGSGGKSQRDQDGGCGAAFPVASIARRVFVCLSVFLTSFFYIFISRQS [NR6A1]” was tested, and the median enrichment was 9.66.
Work on YEQCIT [DCTN6] yielded a median enrichment of 2.67.
Work on “LKWAEPKFGVLHRAPFLHPWGGAQLGATLTMPRPHPVQHSQSSHLHPRTVGAGRHFPLEHVLRSITLGPTARLSLPPGSCMRS [SCARA5]” yielded a median enrichment of 5.99.
For “LPHHTPDHQESQGCCFATHQHRFAQKLCPRLGRSYFKKTWFSWSRWLTPVIPALWEAKPDGS [COG7]”, the median enrichment was 8.59.
For “RGALVSPQSSQAAGSPRQLSGHPVPSAPPSAALCSRPAPPSRGCLGLFTCFPSHINTVFPLLSYNSPTAHSPPH [TNFSF12]”, the median enrichment was 8.64.
RKDNSWKPQQFSIQGIYLRQIEYIL [ARL6] showed a median enrichment of 6.56.
For GNWD [PIK3C3], the median enrichment was 0.441.
ESPLFLPTLQGPHSPYPSVQCTREETLCL [IDH3B] gave a median enrichment of 13.1.
Substance CCCCC [Cys05] has a median enrichment of 4.25.
“GSSTETGASSSSLGCGPSSRTRTSATSRASWRAWASARAASSLTASAASSAA [CCM2L]” was tested, and the median enrichment was 13.6.
In the case of KKVGRARPCQRG [Degron KLHDC3], the median enrichment is reported as 6.66.
Substance “STFLHTQPLLYSTSCPGASHTPELICIILTIFSLLSPFFLFERPSLISKM [TRIM5]” has a median enrichment of 16.6.
In the case of LKILVLLNYLI [TIPARP], the median enrichment is reported as 10.8.
For WWWWWW [Trp06], the median enrichment was 3.74.
In the case of RVEPTSLPSQQARN [TMEM143], the median enrichment is reported as 0.919.
In the case of “LWAHHKDTSSLCRHHPAIESGGPCWSLWTYSSRPEKSLALELNSLDCTITTTYELRDYEGLFRGYESEPLFLEL [TMEM177]”, the median enrichment is reported as 9.96.
Substance QQQQQQQQQQ [Gln10] has a median enrichment of 0.317.
“LKKKKQQVMELHILVTQWTIIGSHWKSGKNPWRLSFSDILPNALLSRIFVSFCLIFWGVFVVVGLFFVFFF [PPP1R12A]” gave a median enrichment of 5.8.
In the case of “YALNINSVLQIFITYLLQSQNPKIFIKSKYLMSFEGSLSYTK [C10orf88]”, the median enrichment is reported as 1.47.
In the case of RSC [DCK], the median enrichment is reported as 0.415.
YDHSGQDHSGHGHGHSHGGHGHSH [S100A9] was tested, and the median enrichment was 0.275.
In the case of “LEHWDAHRPFPSAARRACCGIYCGEHCIGMSGKSLYNLLQPSHLYNSLILFSFHNKMVYKNRSVCDVIGSNHPVLSSHSSW [COX10]”, the median enrichment is reported as 1.73.
PPPPPPPP [Pro08] gave a median enrichment of 1.83.
“GGEERRADLGRALRTWPRARDSPGSSSPWQAQQHVPQIWKGLPLCQCLGGCHGCPHPLLSVCGVEEPTPASCQDHLGGHTPAK [GPRC5C]” gave a median enrichment of 0.687.
For RHVIP [NPFF], the median enrichment was 0.57.
SHFKLTL [PTGIR] showed a median enrichment of 1.1.
With YCRREVSSLCLVCNSSWA [REG3A] the median enrichment was 7.13.
SGV [PTCHD4] gave a median enrichment of 0.462.
For REQ [UNC93A], the median enrichment was 5.69.
Work on “SAPYWPAGPPPPAAGQLPNGPFQGLTLHPFSVDFLARAPSGGITDLMTTLALLPCRVQVLSPHFHLPAPRGPFPFMGLPPSDA [PCDH1]” yielded a median enrichment of 3.42.
WWWWWWWW [Trp08] gave a median enrichment of 4.57.
In the case of RTQTPQSSRLALLRLRGPQKSPPK [TSGA13], the median enrichment is reported as 9.36.
MALAVRVVYCGA [Degron KLHDC2] was tested, and the median enrichment was 5.57.
LSLTALPGANSGT [ANKZF1] gave a median enrichment of 1.24.
In the case of SHVRNLSIK [AGTR1], the median enrichment is reported as 0.587.
